Experimental data reported in IntAct's records for PubMed 18388957.

B1: Inhibitor of growth protein 1 (Homo sapiens), Q9UK53-2 (parent)
chain: MLSPANGEQLHLVNYVEDYLDSIESLPFDLQRNVSLMREIDAKYQEILKELDECYERFSRETDGAQKRRMLHCVQRALIRSQELGDEKIQIVSQMVELVENRTRQVDSHVELFEAQQELGDTAGNSGKAGADRPKGEAAAQADKPNSKRSRRQRNNENRENASSNHDHDDGASGTPKEKKAKTSKKKKRSKAKAEREASPADLPIDPNEPTYCLCNQVSYGEMIGCDNDECPIEWFHFSCVGLNHKPKGKWYCPKCRGENEKTMDKALEKSKKERAYNR

Variants of: B1
Settings: with nqo1_human NQO1, P15559
For S126A, the “effect of a mutation on the interaction” value was “disrupting interaction”.
